Measurements taken from US20240043563A1 (SHANGHAI MABGEEK BIOTECH, published 2024).
Residue numbers refer to the chain shown, from its start. Each block holds one binder with its values, some of them ahead of it.

Columns and labels:
[1] = target: T1, human MASP-2 of human serum (human, UniProt O00187 16-686); assay: cell-based or functional assay
Fc-cyno-MASP-2-CCS = Fc-cyno-MASP-2-CCS (human; cynomolgus monkey, UniProt P01857 119-329 = IgG part); assay: ELISA, plate coated with 1 ug/mL Fc-cyno-MASP-2-CCS
Method: The titer was tested by ELISA: an ELISA plate was coated with the Fc-hMASP-2A-CCS or Fc-hMASP-2-CCS antigen at a concentration of 1 μg/mL, 100 μL per well, and coated overnight at 4° C. The plate was washed twice with PBST (PBS containing 0.5% Tween-20) and then pat-dried. Each well was blocked with 200 μL of coating solution containing 1% BSA, blocked at room temperature for 4 hours, pat-dried, and stored in a refrigerator at −20° C. for use. During testing, 100 μL of mouse serum at different concentrations was added to each well of the ELISA plate, with two replicate wells for each concentration, and the plate was incubated at room temperature for 1.5 hours. The plate was washed three times with PBST and then pat-dried. 100 μL of HRP-labeled rabbit anti-mouse Ig antibody (purchased from Sigma) diluted with PBST by 1:10000 was added, and the plate was incubated at room temperature for 1 hour. The plate was washed three times with PBST and then pat-dried. 100 μL of chromogenic solution was added to each well (ELISA chromogenic solution A was mixed with chromogenic solution B at a volume ratio of 1:1 before use) for a chromogenic reaction, and then 100 μL of 2 M H₂SO₄ stopping solution was added to each well to terminate the reaction. The OD value of each well was immediately measured at 450 nm with a microplate reader (Molecular Device).
Murine anti-human MASP-2 monoclonal antibodies were purified by a Protein G affinity chromatography column, and then quantified by BCA method. The EC50 of anti-human MASP-2 monoclonal antibody binding to Fc-hMASP-2A-CCS or Fc-cyno-MASP-2-CCS was tested by ELISA. The testing method can refer to Example 2. A 96-well ELISA plate was coated with 1 μg/mL of Fc-hMASP-2A-CCS or Fc-cyno-MASP-2-CCS, and then added with murine anti-human MASP-2 monoclonal antibodies at different concentrations for testing.

[2] = target: T1, human MASP-2 of human serum; assay: cell-based or functional assay; remark: listed apart in the source
[3] = target: cynomolgus monkey MASP-2 of cynomolgus monkey serum (cynomolgus monkey); assay: cell-based or functional assay
[4] = target: T1, human MASP-2 of human serum; assay: cell-based or functional assay; remark: listed apart in the source

T1 sequence (O00187 16-686 limits assumed): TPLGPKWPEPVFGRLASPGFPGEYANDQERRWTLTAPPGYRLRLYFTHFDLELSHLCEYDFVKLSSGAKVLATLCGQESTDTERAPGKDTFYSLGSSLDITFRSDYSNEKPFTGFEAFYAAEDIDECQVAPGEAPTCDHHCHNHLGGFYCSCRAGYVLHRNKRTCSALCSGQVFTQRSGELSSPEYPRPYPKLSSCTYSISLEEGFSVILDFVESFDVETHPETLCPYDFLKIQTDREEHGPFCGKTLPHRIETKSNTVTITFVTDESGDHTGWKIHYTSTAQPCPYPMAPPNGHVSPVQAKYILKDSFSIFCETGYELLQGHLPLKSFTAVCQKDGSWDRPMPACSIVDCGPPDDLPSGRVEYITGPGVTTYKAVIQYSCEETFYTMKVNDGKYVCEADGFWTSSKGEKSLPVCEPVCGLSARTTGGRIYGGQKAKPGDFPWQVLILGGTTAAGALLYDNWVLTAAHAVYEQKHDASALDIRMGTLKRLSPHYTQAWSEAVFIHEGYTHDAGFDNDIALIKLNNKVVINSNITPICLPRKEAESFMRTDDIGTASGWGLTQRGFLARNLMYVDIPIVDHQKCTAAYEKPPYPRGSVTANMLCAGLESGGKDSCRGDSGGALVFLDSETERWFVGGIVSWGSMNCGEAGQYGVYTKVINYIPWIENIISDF

IC50 of inhibition of MASP-2-catalyzed C4 cleavage (4% human serum, C4b ELISA) [1]: 0.15 nM | EC50 (Fc-cyno-MASP-2-CCS): 0.179 nM
B1: murine anti-human MASP-2 monoclonal antibody 124 (antibody, V domains shown)
VH: DVQLQESGPGLVKPSQSLSLTCTVTGYSITSDYAWNWIRQFPGNKLEWMGYISYSGRTSYNPSLKSRLSITRDTSKNQFFLQLTSVTTEDTATYYCARHYGDFWGQGTTLTVSS
VL: DIVMTQSQKFMSTSVGDRVSVTCKASQNVDTNVAWFQQKPGQSPKPLIYSASYRYSGVPDRFTGSGSGTDFTLTISNVQSEDLANYFCQQYNSYPSTFGSGTKLEIK
notes: Murine monoclonal antibody purified from hybridoma by Protein G

C4 cleavage IC50 (4% human serum) [2]: 0.281 nM
B2: humanized anti-human MASP-2 monoclonal antibody 100-Hu (antibody, human IgG4 S228P, kappa, V domains shown)
VH: QVQLVESGGGVVQPGGSLRLSCAASGFTFSNFGIHWVRQAPGKGLEWVAYISSGGSAVFYADTVKGRFTISRDNSKNTLYLQMNSLRAEDTAVYYCAKSDRYFDYWGQGTTVTVSS
VL: EIVLTQSPATLSLSPGERATLSCRASQSVSSSSYRYIHWYQQKPGQAPRLLIYYASNLESGIPARFSGSGSGTDFTLTISSLEPEDFAVYYCQHSWETPWTFGQGTKLEIKR

IC50 of inhibition of MASP-2-catalyzed C4 cleavage (4% human serum, C4b ELISA) [1]: 0.238 nM
B3: murine anti-human MASP-2 monoclonal antibody 100 (antibody, V domains shown)
VH: B2 VH with Q1D, V11L, L18R, R19K, G42E, Y80F, N84T, A88S, V93I, V112L
VL: DIVLTQSPASLAVSLGQRATISCRASQSVSSSSYRYIHWYQQKPGQPPRLLIKYASNLESGVPARFSGSGSGTDFTLNIHPVEEEDTATYYCQHSWETPWTFGGGTKLEIK

C4 cleavage IC50 (4% human serum) [2]: 0.214 nM | IC50 of inhibition of MASP-2-catalyzed C4 cleavage in 90% cynomolgus monkey serum [3]: 168 nM | IC50 of inhibition of MASP-2-catalyzed C4 cleavage in 90% human serum [4]: 3.75 nM | IC50 of inhibition of MASP-2-mediated C3b production (4% C1q-removed human serum) [4]: 1.14 nM
B4: humanized anti-human MASP-2 monoclonal antibody 124-Hu (antibody, human IgG4 S228P, kappa, V domains shown)
VH: QVQLQESGPGLVKPSQTLSLTCTVSGYSITSDYAWNWIRQPPGKGLEWMGYISYSGRTSYNPSLKSRLTISRDTSKNQFSLKLSSVTAADTAVYYCARHYGDFWGQGTTVTVSS
VL: DIQMTQSPSSLSASVGDRVTITCKASQNVDTNVAWYQQKPGKAPKLLIYSASYRYSGVPSRFSGSGSGTDFTLTISSLQPEDFATYYCQQYNSYPSTFGQGTKLEIKR

IC50 of inhibition of MASP-2-catalyzed C4 cleavage (4% human serum, C4b ELISA) [1]: 0.275 nM | EC50 (Fc-cyno-MASP-2-CCS): 0.16 nM
B5: murine anti-human MASP-2 monoclonal antibody 120 (antibody, V domains shown)
VH: DVQLQESGPGLVKPSQSLSLTCTVTGYSITSDYAWSWIRQFLRNKLEWMGYISYSGRTSYNPSLKSRISITRDTSKNQFFLQLNSVTTEDTATYFCARLITGGDYWGQGTSVTVSS
VL: DIVMTQSQKFMSTSVGDRVSVTCKASQNVGINVVWYQQKPGQSPKALIYSASYRFSGVPDRFTGSGSGTDFTLTISNVQSEDLAEYLCLQYDINPLTFGAGTKLELK
notes: as for B1

IC50 of inhibition of MASP-2-catalyzed C4 cleavage (4% human serum, C4b ELISA) [1]: 0.0757 nM
B6: murine anti-human MASP-2 monoclonal antibody 136 (antibody, V domains shown)
VH: QVQLQQSGAELAKPGASVKMSCKASGNTFTNYWMHWIKQRPGQGLEWVGYINPNTGYTDFNQKFKDKATLTADKSSTTAYMQLISLTSEDSTVYYCTLQLGRNFDYWGQGTTLTVSS
VL: DIVLTQSPASLGVSLGQRATISCRASQSVSSSRSTYIHWYQQKPGQPPKLLIKYSSNLESGVPARFSGGGSGTDFTLNIHPVEAEDTATYYCHQSWEIPYTFGGGTKLEIR

C4 cleavage IC50 (4% human serum) [2]: 0.0598 nM | IC50 of inhibition of MASP-2-catalyzed C4 cleavage in 90% human serum [4]: 3.46 nM | IC50 of inhibition of MASP-2-mediated C3b production (4% C1q-removed human serum) [4]: 0.494 nM
B7: humanized anti-human MASP-2 monoclonal antibody 126-Hu (antibody, human IgG4 S228P, kappa, V domains shown)
VH: QVQLVESGGGVVQPGRSLRLSCAASGFTFSSFGMHWVRQAPGKGLEWVAYISSGSSSSFYVDTVKGRFTISRDNSKNTLYLQMNSLRAEDTAVYYCARGDRNFEVWGQGTTVTVSS
VL: DIQMTQSPSSLSASVGDRVTITCRASQSVSSSRYSYMHWFQQKPGKAPKLLIYHASNLESGVPSRFSGSGSGTDFTLTISSLQPEDFATYYCQQSWEVPWTFGQGTKLEIKR

C4 cleavage IC50 (4% human serum) [2]: 0.311 nM
B8: humanized anti-human MASP-2 monoclonal antibody 136-Hu (antibody, human IgG4 S228P, kappa, V domains shown)
VH: QVQLVQSGAEVKKPGASVKVSCKASGNTFTNYWMHWIRQAPGQGLEWMGYINPNTGYTDFNQKFKDRVTLTADKSTSTAYMELSSLRSEDTAVYYCTLQLGRNFDYWGQGTTVTVSS
VL: B7 VL with Y34S, S35T, M37I, F40Y, H54Y, A55S, Q93H, V98I, W100Y

IC50 of inhibition of MASP-2-catalyzed C4 cleavage (4% human serum, C4b ELISA) [1]: 0.161 nM | EC50 (Fc-cyno-MASP-2-CCS): 0.096 nM
B9: murine anti-human MASP-2 monoclonal antibody 60 (antibody, V domains shown)
VH: QVQLQQSGAELMKPGASVKISCKATGYPFSTYWIEWVKQRPGHGLEWIGEILPGSDNTNYNEKFKGKATFTADTSSNTAYMQLSSLTSEDSAVYYCARRTTATRAWFVYWGQGTLVTVSA
VL: DIVMSQSPSSLAVSVGEKVTMSCKSSQSLLYSSNQKNYLAWYQQKPGQSPKLLIYWASTRESGVPDRFTGSGSGTDFTLTISSVRAEDLAVYYCQHYYTYPWTFGGGTNLEIK
notes: as for B1

IC50 of inhibition of MASP-2-catalyzed C4 cleavage (4% human serum, C4b ELISA) [1]: 0.0826 nM
B10: murine anti-human MASP-2 monoclonal antibody 115 (antibody, V domains shown)
VH: DVQLVESGGGLVQPGGSRKLSCAASGFTFSSFGMHWVRQAPEKGLEWVAYISSGSSSFFYADTVKGRFTISRDNPKNTLFLQMTSLRSEDTAMYYCARGDRNFDVWGAGTTVTVSS
VL: B3 VL with S30T, S33R, R35S, I37M, Y40F, R49N, Y54H, E85D, T98V

IC50 of inhibition of MASP-2-catalyzed C4 cleavage (4% human serum, C4b ELISA) [1]: 0.0774 nM
B11: murine anti-human MASP-2 monoclonal antibody 126 (antibody, V domains shown)
VH: B10 VH with A23V, F58S, A61V, D104E
VL: B3 VL with S33R, R35S, I37M, Y40F, R49N, Y54H, H94Q, T98V
